Experimental data from patent US20110104248A1, “LIPOSOMES AND IMMUNOPOTENTIATING COMPOSITIONS CONTAINING THE SAME” (FOODCHEMIFA CO., LTD., priority 2007, published 2011).

Tests used:
C57BL/6 mice = test: Enhancing antibody production: serum anti-OVA IgG2a by ELISA; type: in vivo, mouse; conditions: 25 μg GSL-7 and 25 μg OVA through the caudal vein, serum after 14 days, ELISA absorbance at 405 nm
Experimental: Liposome F (in an amount so that 25 μg of GSL-7 and 25 μg of OVA were contained) was administered to C57BL/6 mice (8- to 10-week-old females) through the caudal vein. After 14 days, blood was collected and then serum anti-OVA antibody levels were measured by ELISA. An anti-OVA antibody titer (IgG2a) was assayed by adding the gradually diluted serum to a 96-well plate coated with OVA. Alkaline phosphatase (AP)-labeled anti-mouse IgG2a antibodies were used as detection antibodies. The color was developed using paranitrophenylphosphate (p-nitrophenyl phosphate) as a substrate. The reaction was terminated with 3N NaOH, the absorbance at 405 nm was measured using a microplate reader.

[1] = system: splenocytes stimulated with OVA; test: Antigen-specific IFN-γ production from splenocytes of treated mice; type: in vivo, mouse; conditions: 25 μg GSL-7 i.v.; spleen after 1 week; splenocytes stimulated with OVA 1 mg/ml, 96 hours
Experimental: Liposome F (prepared in an amount so that 25 μg of GSL-7 was contained) prepared as in Example 14 was administered to C57BL/6 mice (8- to 10-week-old males) through the caudal vein. After 1 week, the spleen was excised. Splenocytes (5×10^5) were stimulated with OVA (1 mg/ml). After 96 hours, IFN-γ levels in the culture supernatants were measured. IFN-γ levels were measured by sandwich ELISA using purified anti-IFN-γ antibodies (R4-6A2) as capture antibodies and biotin-labeled anti-IFN-γ antibodies (AN-18) as detection antibodies. In the subsequent reaction, alkaline phosphatase-labeled streptavidin was caused to bind to biotin-labeled antibodies. The color was developed using p-nitrophenyl phosphate as a substrate. The absorbance at a wavelength of 405 nm was measured using a microplate reader (MICROPLATE READER Model 550). IFN-γ concentrations in test samples were calculated based on the standard curve of IFN-γ in the recombinant mice.

B1: OVA: ovalbumin (OVA) (SIGMA), antigen (protein, UniProt P01012 2-386, looked up)
Ovalbumin: GSIGAASMEFCFDVFKELKVHHANENIFYCPIAIMSALAMVYLGAKDSTRTQINKVVRFDKLPGFGDSIEAQCGTSVNVHSSLRDILNQITKPNDVYSFSLASRLYAEERYPILPEYLQCVKELYRGGLEPINFQTAADQARELINSWVESQTNGIIRNVLQPSSVDSQTAMVLVNAIVFKGLWEKAFKDEDTQAMPFRVTEQESKPVQMMYQIGLFRVASMASEKMKILELPFASGTMSMLVLLPDEVSGLEQLESIINFEKLTEWTSSNVMEERKIKVYLPRMKMEEKYNLTSVLMAMGITDVFSSSANLSGISSAESLKISQAVHAAHAEINEAGREVVGSAEAGVDAASVSEEFRADHPFLFCIKHIATNAVLFFGRCVSP
- Anti-OVA IgG2a (C57BL/6 mice): 0.049 ± 0.018
- IFN-γ [1]: 4.79 ± 0.45 ng/mL
